This is an account of results in PMC10506485, “Human astrovirus capsid protein releases a membrane lytic peptide upon trypsin maturation” (Journal of Virology, 2023).

This series concerns the molecule itself. The series is described as follows: SEC; Superdex-200 or Superdex-75 size exclusion column; 50 mM Tris-HCl pH 8.0, 150 mM NaCl, 1 mM NaN3; self-association judged from the elution profile.

B1: HAstV8 VP90^28-782 (domain or fragment)
chain: QSRGRGRSVKITVNSHNKGRRQNGRNKYQSNQRVRKIVNKQLRKQGVTGPKPAICQTATATLGTIGSNTTGATEIEACILLNPVLVKDATGSTQFGPVQALGAQYSMWKLKYLNVRLTSMVGASAVNGTVVRISLNPTSTPSSTSWSGLGARKHLDVTVGKNAVFKLKPSDLGGPRDGWWLTNTNDNASDTLGPSIEIHTLGQTMSSYQNTQFTGGLFLVELSSAWCFTGYAANPNLVNLVKSTDKSVNVTFEGSAGTPLIMNVPEHSHFARTAVEHSSLSTSLSRAGGESSSDTVWQVLNTAVSAAELVTPPPFNWLVKGGWWFVKLIAGRARTGARRFYVYLSYQDALSNKPALCTGGVPASARQSNPVRTTLQFTQMNQPSLGHGATPMTFGRSIPEPGEQFRVLLTVGPPMAPNTANSQNWVNKTIVPPENQYTVKIGIDLEHYTTMQGFTPVESVSWYTADFQPSDEPSPIPGLYARVNNTKKADVYGVQQFKSSHTNNRHQITSVFLVRVTTSFQVINYTSYFIRGAESGSNVSNLKIRDQTYHTPLQFTQGKWYLLTSTVMHDGPTSSGWVWMNQELTNNIAYRVDPGMMYLITPPPAASQLYFELHTVLPQARSEEPETYVDAPLPEEPPIEEEETDSDFESTEDENDEVDRFDLHPSSESDDDDVENDRATLLSTLLNQGISVERATRITNGAFPTRAARVRRSVYNDLLVSGLSPGAAWSHACEQARRAGDNHDLQLSGSRDHAE
notes: Capsid polyprotein precursor VP90 of human astrovirus serotype 8 (strain Yuc8), residues 28-782, N-terminal truncation; The results name the vector pET28a, the methods pET-SUMOc with an N-terminal 6xHis-SUMO tag; Forms rod-shaped assemblies of about 20 nm diameter and variable length; also called aa28–782; source: E. coli (Rosetta 2 (DE3) or BL21), purified (HisTrap, Superdex-200 size exclusion)
Consider B1, for which the binding result was “binds”.

B2: HAstV8 VP90^72-782 (domain or fragment)
chain: QGVTGPKPAICQTATATLGTIGSNTTGATEIEACILLNPVLVKDATGSTQFGPVQALGAQYSMWKLKYLNVRLTSMVGASAVNGTVVRISLNPTSTPSSTSWSGLGARKHLDVTVGKNAVFKLKPSDLGGPRDGWWLTNTNDNASDTLGPSIEIHTLGQTMSSYQNTQFTGGLFLVELSSAWCFTGYAANPNLVNLVKSTDKSVNVTFEGSAGTPLIMNVPEHSHFARTAVEHSSLSTSLSRAGGESSSDTVWQVLNTAVSAAELVTPPPFNWLVKGGWWFVKLIAGRARTGARRFYVYLSYQDALSNKPALCTGGVPASARQSNPVRTTLQFTQMNQPSLGHGATPMTFGRSIPEPGEQFRVLLTVGPPMAPNTANSQNWVNKTIVPPENQYTVKIGIDLEHYTTMQGFTPVESVSWYTADFQPSDEPSPIPGLYARVNNTKKADVYGVQQFKSSHTNNRHQITSVFLVRVTTSFQVINYTSYFIRGAESGSNVSNLKIRDQTYHTPLQFTQGKWYLLTSTVMHDGPTSSGWVWMNQELTNNIAYRVDPGMMYLITPPPAASQLYFELHTVLPQARSEEPETYVDAPLPEEPPIEEEETDSDFESTEDENDEVDRFDLHPSSESDDDDVENDRATLLSTLLNQGISVERATRITNGAFPTRAARVRRSVYNDLLVSGLSPGAAWSHACEQARRAGDNHDLQLSGSRDHAE
notes: Capsid polyprotein precursor VP90 of human astrovirus serotype 8 (strain Yuc8), residues 72-782, N-terminal truncation; The results name the vector pET28a, the methods pET-SUMOc with an N-terminal 6xHis-SUMO tag; also called aa72–782; source: E. coli (Rosetta 2 (DE3) or BL21), purified (HisTrap, Superdex size exclusion)
One may read the stoichiometry N as a count of units in the complex or per binding partner. Consider B2, for which the “stoichiometry N” value is 2.

B3: HAstV8 VP90^14-782 (domain or fragment)
chain: NNNGRSRSKSRARSQSRGRGRSVKITVNSHNKGRRQNGRNKYQSNQRVRKIVNKQLRKQGVTGPKPAICQTATATLGTIGSNTTGATEIEACILLNPVLVKDATGSTQFGPVQALGAQYSMWKLKYLNVRLTSMVGASAVNGTVVRISLNPTSTPSSTSWSGLGARKHLDVTVGKNAVFKLKPSDLGGPRDGWWLTNTNDNASDTLGPSIEIHTLGQTMSSYQNTQFTGGLFLVELSSAWCFTGYAANPNLVNLVKSTDKSVNVTFEGSAGTPLIMNVPEHSHFARTAVEHSSLSTSLSRAGGESSSDTVWQVLNTAVSAAELVTPPPFNWLVKGGWWFVKLIAGRARTGARRFYVYLSYQDALSNKPALCTGGVPASARQSNPVRTTLQFTQMNQPSLGHGATPMTFGRSIPEPGEQFRVLLTVGPPMAPNTANSQNWVNKTIVPPENQYTVKIGIDLEHYTTMQGFTPVESVSWYTADFQPSDEPSPIPGLYARVNNTKKADVYGVQQFKSSHTNNRHQITSVFLVRVTTSFQVINYTSYFIRGAESGSNVSNLKIRDQTYHTPLQFTQGKWYLLTSTVMHDGPTSSGWVWMNQELTNNIAYRVDPGMMYLITPPPAASQLYFELHTVLPQARSEEPETYVDAPLPEEPPIEEEETDSDFESTEDENDEVDRFDLHPSSESDDDDVENDRATLLSTLLNQGISVERATRITNGAFPTRAARVRRSVYNDLLVSGLSPGAAWSHACEQARRAGDNHDLQLSGSRDHAE
notes: Capsid polyprotein precursor VP90 of human astrovirus serotype 8 (strain Yuc8), residues 14-782, N-terminal truncation; The results name the vector pET28a, the methods pET-SUMOc with an N-terminal 6xHis-SUMO tag; also called aa14–782; source: E. coli (Rosetta 2 (DE3) or BL21), purified (HisTrap, Superdex size exclusion)
Regarding B3, the binding result is “binds”.
